{"source": "patent US20030134789A1", "about": "“Compositions and methods for protecting tissues and cells from damage, and for repairing damaged tissues” (priority 2001, published 2003)", "origin": "cited, not measured here", "molecules": {"B1": {"name": "peanut agglutinin (PNA): dietary lectin found in the blood of humans after ingesting raw peanuts (protein, UniProt P02872 24-273, looked up)", "Galactose-binding lectin": "AETVSFNFNSFSEGNPAINFQGDVTVLSNGNIQLTNLNKVNSVGRVLYAMPVRIWSSATGNVASFLTSFSFEMKDIKDYDPADGIIFFIAPEDTQIPAGSIGGGTLGVSDTKGAGHFVGVEFDTYSNSEYNDPPTDHVGIDVNSVDSVKTVPWNSVSGAVVKVTVIYDSSTKTLSVAVTNDNGDITTIAQVVDLKAKLPERVKFGFSASGSLGGRQIHLIRSWSFTSTLITTTRRSIDNNEKKIMNMASA"}}, "details": "humans, an hour after ingesting 200 g of raw peanuts"}
{"molecule": "B1", "values": [{"measurement": "level in the blood", "result": "1000 to 5000", "unit": "ng/mL"}]}
